The values below come from article PMC6730670.

For the assay, the target named is Yn-ABHD5 (UniProt Q9DBL9). Briefly: split reporter.
Sequence of Yn-ABHD5 (Q9DBL9 whole entry): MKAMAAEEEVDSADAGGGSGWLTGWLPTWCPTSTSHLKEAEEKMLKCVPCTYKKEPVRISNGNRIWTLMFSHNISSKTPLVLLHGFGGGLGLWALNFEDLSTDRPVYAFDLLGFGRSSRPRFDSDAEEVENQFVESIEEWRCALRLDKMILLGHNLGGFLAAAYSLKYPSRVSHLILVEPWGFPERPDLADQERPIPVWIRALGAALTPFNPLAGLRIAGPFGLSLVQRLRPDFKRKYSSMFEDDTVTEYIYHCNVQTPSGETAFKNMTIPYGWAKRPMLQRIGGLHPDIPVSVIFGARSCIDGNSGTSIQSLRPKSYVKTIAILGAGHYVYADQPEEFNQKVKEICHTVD

In turn, “PNPLA3-Yc (from UniProt Q91WW7 1-413) (natural protein)” returned a percent of transfected cells with BiFC of more than 90%.
